# Data taken from the supplement of paper PMC12042874.
# ± gives the uncertainty stated by the source.
# Experiment: amyloid nucleation score (Sup35N fusion, yeast selection) (log enrichment); library NNK3; higher = more nucleation; inactive = no reads after selection
# Outline: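 The nucleation score is the log enrichment of output over input reads, calculated with DiMSum and centred on the mode score of non-aggregating sequences. Sequences with under 100 input reads were excluded. Reads came from Illumina sequencing of plasmid inserts from psi-negative yeast expressing Sup35N fused to peptides of 20 random codons, induced 24 hours with 100 μM copper sulfate and grown 7 days at 30°C without adenine and uracil.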
row,Substance,amyloid nucleation score
1,VFDSCRTFSMYTDLLGWEWR,inactive
2,SSKARSQSCVLRMMIPDRQW,inactive
3,KLRCNTIKGFCSHKTRMGRT,inactive
4,SHFAEQGLSCSLSYSFSTIL,inactive
5,IVKTPVCSVTRRYPFSDRLL,inactive
6,FVKSVRYSL,1.45 ± 0.064
7,GDRRER,0.811 ± 0.16
8,CDMSCMTKSCPPSYPN,-0.395 ± 0.8
9,FHMIECGVYAKHLGHCTRYI,-0.079 ± 0.33
10,KLVICYCGYNHDCVVCTKRE,1.56 ± 0.094
11,RTFVNGSAEYANASHWEYPN,inactive
12,VYACWIMSNVPSRAVEILYS,inactive
13,GYRLRQTSARYIAVEWSWKC,inactive
14,GDDSSRHFNEFLYNRFAALW,inactive
15,CLWFISRQFDLYHRVMGNRS,inactive
16,TVSLRCWARLSNTDFIRFNS,inactive
17,VSFYSSCVWIDARSCDYCYF,2.79 ± 0.058
18,MPRSCSDYACAV,inactive
19,LRLCGAMPDRCLW,inactive
20,WIVVDKSNQCGLGYVLWYNF,inactive
21,MILLLGLDRKHSSGESKALI,inactive
22,YQSKQRVGSS,inactive
23,KFKFVLILSEDAKAT,1.23 ± 0.17

row,Substance,amyloid nucleation score
1,DNICIYWALDGIYECSRHSR,inactive
2,FAVTLNSWRARFRFMDRNDM,0.682 ± 0.26
3,VITLYVVGVYWGGNDIGDFM,0.976 ± 0.19
4,SKIGILWCLMSEECYLFQFR,inactive
5,NGGVLAGTMG,inactive
6,SKIVNHFNDHYHFEITCQYQ,2.88 ± 0.057
7,FNGICRWTCYSCS,2.09 ± 0.08
8,NNRVLQRRPHRFHGANVTWS,-0.677 ± 1.4
9,RCDRVCGWGDRFNAGSGYRW,inactive
10,ITFLDWKLTTTG,inactive
11,RHWDVLK,inactive
12,SAVRHRLWVVGLASTRLYEC,-0.24 ± 1.1
13,WINTRLGCPDTNRGSTRVTL,inactive
14,VWVHA,inactive
15,ESADATLREAKSSVYKKYRY,inactive
16,LVGHEFTAGSNYDSDLGTV,inactive
17,HPWEARGHPVLHERRNLHSI,inactive
18,MRTMLVFVRGFKFFLPDLLI,inactive
19,DSKVLSFSWAMFMLIM,inactive
20,NTNRLFNSLRTKLGFCFYSF,inactive
21,WTSQVMRMDKTQVTGRDRVA,inactive
22,VIWVPVKIR,inactive
23,CQHSRRLKGAAYKSCQMYRR,inactive

row,Substance,amyloid nucleation score
1,DENVALFFLF,inactive
2,GVMGYSSYSLSAENTVYSPW,inactive
3,MWVFKMRTGQYRASSRSLHR,0.175 ± 0.37
4,LMKFFINVKVSGGVTCVRIN,inactive
5,YSDFAWDPRSKNKYGWHPRL,inactive
6,LKIRKFLTFKFSSALIIVVC,inactive
7,HFKSESRFTN,inactive
8,VSLLSVCGCDRRVFEVWHYG,0.446 ± 0.2
9,HRIRVVENLPHCVLSSRMPL,inactive
10,CDSYKVYRVLNKQGWFCRGS,inactive
11,NYYYMYGKCSI,2.28 ± 0.082
12,EVLNCSR,inactive
13,PNISGGDAIEGLFFFRVGRE,1.04 ± 0.14
14,FYPLICQRLKRSNIPGVWP,inactive
15,LYNVMGLALASLAISNLRDK,inactive
16,YSRFDWVNLVIVGHYRTLFS,inactive
17,RNQFWTWYGVSMLSNRQHGK,inactive
18,SVFPSLFNACSDLNSVHKVV,inactive
19,VRVSNYTRVLVYKDRVS,inactive
20,NAGHICFVVVTKWREFASVY,inactive
21,YVGYIDRWSSCYKVFWV,inactive
22,CIGGWDIKGKQ,inactive
23,DKRNSLGCGLNYGFKADDGW,inactive

row,Substance,amyloid nucleation score
1,YLCWAFDTMVSGDRGPRSC,-0.102 ± 0.81
2,NWMGTGGYDMDDFFE,inactive
3,SCYRVNLLGVYWRVMVDVLV,inactive
4,QSSKDTWRCASDKYERSGKR,inactive
5,IKQGYRAHLWWIVVNRLMFD,inactive
6,YPLFMDYMLTCVHM,inactive
7,VQFMMYVGTGIGAVGSGVNY,1.53 ± 0.11
8,RVRVYYGQDWYYKMLLARTI,-0.379 ± 0.84
9,FQSHLNIVIVYIRLNYTVLL,-0.394 ± 0.63
10,RHRIRWSMRRNWSACVQ,inactive
11,RDSLFSV,inactive
12,MLARHCQQGGRDHPWLGSVL,inactive
13,AFFPHELRDMFRSNLYCCYA,inactive
14,CYPTSFGCFFVFFWYYVYCG,inactive
15,WGNISGSA,inactive
16,LRATNRGVMLNRFVSTMDKS,inactive
17,DGVLSVGSLCNDRFVLEMYG,-0.432 ± 1
18,MDDFLYAVPMWELWKVLRDE,inactive
19,TRERWTTVYLNKLFLLCYSD,inactive
20,IRNALIYIVISLKFGRRGCY,0.107 ± 0.28
21,FYTIGWGWNQKCGIFRHMVR,inactive
22,IMTLFTILVTLMTMCLDQFV,inactive
23,SQLKMSYRHYPMMMCVIVFS,inactive

row,Substance,amyloid nucleation score
1,YVGPKMFLVWVCDATDVGKW,inactive
2,FMEHLLYE,inactive
3,RIGAPKRRSRTWKNPAWTGQ,inactive
4,WAYLWLSKNSYGR,inactive
5,FCFSYSYAYFCHIYGCGSNR,-0.281 ± 0.36
6,MSGSRWRSTNFTCNNLWFDR,-1.07 ± 1.1
7,PCFEFSTSVRVFSDAKGLSV,0.234 ± 0.25
8,SENICLYT,inactive
9,TPHLSCNLRYG,inactive
10,VEGCMIFMVVSLLKHYASYT,inactive
11,FMRDD,inactive
12,LDSGFICMTELIGVVPH,inactive
13,TLLLL,inactive
14,GVVVIPS,0.933 ± 0.16
15,IPCLQVYFTSTPNPSWSHGH,inactive
16,EVQVFSFDTGCMHSHNLYAS,inactive
17,YTRLRNVDTRAFMDSPDILW,inactive
18,NCRVMITVIYTICNVVFLSC,inactive
19,WWTNLATPAKNQS,inactive
20,HEQDVAPKCWMYVELNQLGW,0.688 ± 0.2
21,SFLYYRFVLVGIFLRVAGRF,inactive
22,NSTDRMTASS,inactive
23,RLYYRLQTKQAVWCNHPAPT,inactive

row,Substance,amyloid nucleation score
1,SGSGFQLLDGLTTRFSVVTF,inactive
2,HTILENFSSLVVMRDGRRNG,-0.275 ± 0.52
3,LFDMLMHTSPC,inactive
4,GAMLRVGV,inactive
5,WTYIWCAN,1.75 ± 0.11
6,YVRLWVEDWETFSKMGSQIL,inactive
7,SFPASFSYRNGFVWLNFWVV,inactive
8,ERALPQGMDRWSWFRERSCH,inactive
9,ILEYAVVNHQVNLVIVSIGH,1.65 ± 0.068
10,HCVTLWLKSYL,inactive
11,FLWVAANLDFVYDEREHIRG,inactive
12,FSVRIKYI,inactive
13,CLKVSTKCFW,0.097 ± 0.52
14,LNSFSPGKNDCS,inactive
15,FSAMTPSGRWHDRSRSDVIN,inactive
16,MSFEYSPQGSILYGPSRNIY,inactive
17,RSWIGTKGPL,inactive
18,LRRRSLDHKSGSYLVTG,inactive
19,SVSEFSFGSKCIVRRLGI,inactive
20,CAYPVKKCMPYQYMKKFVLV,inactive
21,IKGFRGLLFEVSYHSPELGW,inactive
22,QRDHMGFSGDLW,inactive
23,YIISRFYMAVWGDKPLYTGL,inactive

row,Substance,amyloid nucleation score
1,RISYMSGDYRPSKCACVYAE,inactive
2,CNLALFTRGWGEYMIVSCCK,inactive
3,HLCWNRQGNDRRELKSRWRK,inactive
4,PRLLRVSAIKSGRCPKGKKS,inactive
5,ANTFKVWPKDICAGTVYM,inactive
6,VEMFNITAYTIKSLRVIGLV,inactive
7,WTNSSQHLSESLWYVDYCQG,inactive
8,PFGVFHSSATTKRHFYMVGV,inactive
9,VWKLRLDVLIITIWGFNFYL,inactive
10,DDECELNMRYNGREYQGTDG,inactive
11,LDLIRY,inactive
12,IGEMNTPMPAMKFVMRWLDH,0.845 ± 0.13
13,EFALTIWCLGAALCIIKSLS,inactive
14,RMILFFVARSSKMGIGTFGF,0.868 ± 0.21
15,GVRLNEIGRIMIRQACGIWE,inactive
16,NTMMA,inactive
17,LGYWKFSIRHFEGGRLQIHF,2.7 ± 0.056
18,NTFVDGKSRYYSYLRIVQIL,inactive
19,QVILKNMGPNIVSYGLG,inactive
